The results in this text go back to US20200017598A1.

The target of the assay is mouse C5aR (mouse) (UniProt P30993). Description: cell-based or functional assay.
Chain of UniProt P30993 (P30993 other isoform, or with tags, fused parts or gaps): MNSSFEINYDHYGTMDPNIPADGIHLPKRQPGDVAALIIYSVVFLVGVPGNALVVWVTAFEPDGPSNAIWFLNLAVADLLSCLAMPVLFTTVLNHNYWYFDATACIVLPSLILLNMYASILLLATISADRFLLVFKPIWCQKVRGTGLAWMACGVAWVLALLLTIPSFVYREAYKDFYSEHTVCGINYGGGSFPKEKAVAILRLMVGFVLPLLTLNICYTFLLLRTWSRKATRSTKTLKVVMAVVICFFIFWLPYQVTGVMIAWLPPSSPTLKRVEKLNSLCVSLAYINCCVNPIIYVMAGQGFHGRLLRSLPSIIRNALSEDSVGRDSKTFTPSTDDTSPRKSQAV

In the case of “Anti-mouse C5aR mAb m20/70 (20/70 variable regions on mouse kappa and mouse IgG2a.1 constant regions) (from UniProt P01863 1-330) (antibody)”, the inhibition of C5a-induced CD11b up-regulation on neutrophils (live Ly6G+ cells) in mouse whole blood stimulated with recombinant mouse C5a, flow cytometry is 0.6 µg/mL.
